Results on one substance are retold here after doi:10.64898/2025.12.30.697075.

The target of test [1] is pennycress (Thlaspi arvense) biotin carboxylase (BC) subunit of the plastid heteromeric acetyl-CoA carboxylase (Thlaspi arvense (field pennycress)). As to the kind of experiment: cross-linking.
For test [2] the target is unchanged. As to the kind of experiment: cryo-EM structure.

Where “and” joins values, the source holds several entries; their conditions need not be identical. Equal values may be shown once.

As for “pennycress (Thlaspi arvense) biotin carboxylase (BC) subunit of the plastid heteromeric acetyl-CoA carboxylase (enzyme)”, the stoichiometry N (commonly a count of units in the complex or per binding partner) in test [1] was 2 and 4; in test [2] it was 2 and 4 and 6.
